From publication PMC12170185

Columns and labels:
Assay in all cases: fluorescence anisotropy
Settings in all cases: FA: 25 mM HEPES pH 7.45, 150 mM NaCl, 5% glycerol, 10 nM probe, temperature not stated, EMSA: 250 nM probe in 25 mM HEPES pH 7.45, 100 mM NaCl
UPF2L = UPF2L (UniProt Q9HAU5)
UPF2 MIF4G-D3 = UPF2 MIF4G-D3 (UniProt Q9HAU5)
UPF2 MIF4G-D2-3 = UPF2 MIF4G-D2-3 (UniProt Q9HAU5)
UPF2 MIF4G-D1-2 = UPF2 MIF4G-D1-2 (UniProt Q9HAU5)
UPF2 MIF4G-D2 = UPF2 MIF4G-D2 (UniProt Q9HAU5)
UPF2 MIF4G-D1 = UPF2 MIF4G-D1 (UniProt Q9HAU5)
Sequence of UPF2 MIF4G-D1 (Q9HAU5 120-486): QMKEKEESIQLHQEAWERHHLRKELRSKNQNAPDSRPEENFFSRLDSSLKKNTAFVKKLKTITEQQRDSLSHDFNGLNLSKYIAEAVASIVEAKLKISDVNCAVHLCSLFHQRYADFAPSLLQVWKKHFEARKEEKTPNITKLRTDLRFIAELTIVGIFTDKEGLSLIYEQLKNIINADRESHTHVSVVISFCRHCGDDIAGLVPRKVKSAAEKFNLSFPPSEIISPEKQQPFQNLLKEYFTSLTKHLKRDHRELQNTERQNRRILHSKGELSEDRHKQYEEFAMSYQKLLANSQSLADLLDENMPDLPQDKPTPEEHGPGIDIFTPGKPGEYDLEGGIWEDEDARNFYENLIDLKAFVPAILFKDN

Sequence of UPF2 MIF4G-D3 (Q9HAU5 761-1054): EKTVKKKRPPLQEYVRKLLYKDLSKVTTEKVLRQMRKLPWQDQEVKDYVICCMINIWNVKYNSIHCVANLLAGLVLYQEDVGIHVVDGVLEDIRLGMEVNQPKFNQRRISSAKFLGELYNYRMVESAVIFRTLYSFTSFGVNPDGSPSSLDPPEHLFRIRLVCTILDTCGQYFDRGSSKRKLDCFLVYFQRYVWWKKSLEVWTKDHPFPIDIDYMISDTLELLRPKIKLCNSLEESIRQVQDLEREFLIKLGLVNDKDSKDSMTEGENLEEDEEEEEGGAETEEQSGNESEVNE
Sequence of UPF2L (Q9HAU5 121-1227): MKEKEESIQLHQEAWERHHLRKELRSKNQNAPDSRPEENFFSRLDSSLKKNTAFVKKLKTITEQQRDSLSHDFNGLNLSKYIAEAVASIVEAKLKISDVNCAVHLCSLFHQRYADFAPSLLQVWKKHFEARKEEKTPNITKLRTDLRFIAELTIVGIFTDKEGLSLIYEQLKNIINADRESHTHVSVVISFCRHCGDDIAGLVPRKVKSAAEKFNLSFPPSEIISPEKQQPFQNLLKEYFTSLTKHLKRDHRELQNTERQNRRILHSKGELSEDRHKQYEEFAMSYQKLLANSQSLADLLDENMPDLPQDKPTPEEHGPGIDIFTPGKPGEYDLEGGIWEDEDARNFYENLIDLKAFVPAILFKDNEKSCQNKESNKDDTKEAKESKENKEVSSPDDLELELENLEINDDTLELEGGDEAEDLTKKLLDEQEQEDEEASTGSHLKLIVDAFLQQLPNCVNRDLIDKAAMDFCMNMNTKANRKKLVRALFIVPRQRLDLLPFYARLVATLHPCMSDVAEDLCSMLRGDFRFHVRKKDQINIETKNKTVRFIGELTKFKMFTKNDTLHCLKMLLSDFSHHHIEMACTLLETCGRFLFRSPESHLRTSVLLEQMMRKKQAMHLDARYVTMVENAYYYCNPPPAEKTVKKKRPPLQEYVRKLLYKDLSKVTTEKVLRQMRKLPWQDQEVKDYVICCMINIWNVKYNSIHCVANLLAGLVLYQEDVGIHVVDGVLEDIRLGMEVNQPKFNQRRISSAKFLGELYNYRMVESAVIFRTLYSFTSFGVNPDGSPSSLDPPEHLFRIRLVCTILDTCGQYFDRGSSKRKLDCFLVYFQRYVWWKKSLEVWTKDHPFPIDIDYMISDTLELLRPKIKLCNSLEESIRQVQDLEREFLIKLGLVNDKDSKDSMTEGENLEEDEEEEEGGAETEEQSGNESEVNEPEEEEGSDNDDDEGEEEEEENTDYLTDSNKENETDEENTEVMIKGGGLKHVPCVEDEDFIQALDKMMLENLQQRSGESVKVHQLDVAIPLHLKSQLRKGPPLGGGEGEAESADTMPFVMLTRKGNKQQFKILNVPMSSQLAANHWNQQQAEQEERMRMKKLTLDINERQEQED
Sequence of UPF2 MIF4G-D1-2 (Q9HAU5 120-757): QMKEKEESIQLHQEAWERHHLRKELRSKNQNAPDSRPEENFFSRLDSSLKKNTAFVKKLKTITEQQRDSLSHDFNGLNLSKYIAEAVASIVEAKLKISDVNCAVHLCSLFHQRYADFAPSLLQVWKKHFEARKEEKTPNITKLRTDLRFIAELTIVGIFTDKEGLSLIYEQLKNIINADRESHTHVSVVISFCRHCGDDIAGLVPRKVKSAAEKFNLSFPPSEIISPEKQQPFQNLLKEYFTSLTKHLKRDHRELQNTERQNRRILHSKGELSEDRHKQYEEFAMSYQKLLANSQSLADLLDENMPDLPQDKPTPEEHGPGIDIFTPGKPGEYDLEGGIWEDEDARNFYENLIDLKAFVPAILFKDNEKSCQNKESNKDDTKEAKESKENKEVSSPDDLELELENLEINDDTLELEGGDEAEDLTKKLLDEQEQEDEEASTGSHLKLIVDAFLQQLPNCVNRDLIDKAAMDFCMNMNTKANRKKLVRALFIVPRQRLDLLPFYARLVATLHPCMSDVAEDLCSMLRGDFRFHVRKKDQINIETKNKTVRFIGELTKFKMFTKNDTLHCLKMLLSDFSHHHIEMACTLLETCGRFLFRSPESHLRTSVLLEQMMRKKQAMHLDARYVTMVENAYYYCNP
Sequence of UPF2 MIF4G-D2-3 (Q9HAU5 455-1054): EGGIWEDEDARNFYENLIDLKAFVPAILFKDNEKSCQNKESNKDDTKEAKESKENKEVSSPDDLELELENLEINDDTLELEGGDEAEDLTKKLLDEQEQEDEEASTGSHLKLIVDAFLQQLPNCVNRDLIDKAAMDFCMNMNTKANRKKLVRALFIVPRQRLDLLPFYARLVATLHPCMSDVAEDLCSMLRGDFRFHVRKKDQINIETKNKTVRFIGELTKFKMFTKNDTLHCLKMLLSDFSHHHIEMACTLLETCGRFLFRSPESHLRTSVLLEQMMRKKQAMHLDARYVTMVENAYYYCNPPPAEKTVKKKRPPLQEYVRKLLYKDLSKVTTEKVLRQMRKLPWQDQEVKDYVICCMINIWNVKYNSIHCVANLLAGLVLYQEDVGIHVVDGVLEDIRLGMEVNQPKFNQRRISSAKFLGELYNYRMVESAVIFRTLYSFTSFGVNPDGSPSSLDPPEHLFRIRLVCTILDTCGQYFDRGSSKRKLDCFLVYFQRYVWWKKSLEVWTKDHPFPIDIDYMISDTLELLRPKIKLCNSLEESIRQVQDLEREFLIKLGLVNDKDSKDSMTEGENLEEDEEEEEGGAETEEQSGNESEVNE
Sequence of UPF2 MIF4G-D2 (Q9HAU5 455-757): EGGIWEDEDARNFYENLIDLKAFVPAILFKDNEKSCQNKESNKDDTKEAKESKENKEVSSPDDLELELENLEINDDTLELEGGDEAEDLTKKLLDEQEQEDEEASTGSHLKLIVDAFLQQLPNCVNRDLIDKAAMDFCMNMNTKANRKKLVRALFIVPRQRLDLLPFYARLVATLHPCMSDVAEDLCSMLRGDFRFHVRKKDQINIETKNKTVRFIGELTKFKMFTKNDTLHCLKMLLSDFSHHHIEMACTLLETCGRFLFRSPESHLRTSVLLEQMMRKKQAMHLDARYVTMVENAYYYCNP

Row | Substance | Kd (UPF2L) [nM] | Kd (UPF2 MIF4G-D3) [nM] | Kd (UPF2 MIF4G-D2-3) [nM] | Kd (UPF2 MIF4G-D1-2) [nM] | Kd (UPF2 MIF4G-D2) [nM] | Kd (UPF2 MIF4G-D1) [nM]
1 | 24 nt ss-DNA | 431 | – | – | – | – | –
2 | 24 nt ds-DNA | 334 | – | – | – | – | –
3 | 24 nt ds-RNA | 454 | – | – | – | – | –
4 | 13 nt PYR ss-RNA | 650 | 529 | – | – | – | –
5 | 24 nt ss-RNA | 135 | 694 | 530 | 784 | 3500 | 1400
6 | 13 nt PUR ss-RNA | 683 | 1280 | – | – | – | –
